B1: TPR t1 (parent)
chain: GACCAAUCUGCCCUCAGAGCUCGAGAACAUCUUCGGAUGCAGAGGAGGCAGGCUUCGGUGGCGCGAUAGCGCCAACGUCCUCAACCUCCAAUGCAUCCCACCACAUGAUGAUGCCUGAAGAGCCUUGGUUUUUUG

Variants of: B1
Test: polymerase ribozyme fitness, log enrichment relative to wild type (log ratio); higher = more active; in vitro selection for triplet polymerase activity
Method in brief: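 A single round of triplicate in vitro selection, including frozen incubation at −7 °C, was applied to PCR-built, transcribed mutant libraries of each subunit of a heterodimeric triplet polymerase ribozyme. Illumina sequencing of input and output libraries retained genotypes with ≥10 input reads and ≥1 read per output. Fitness is the base-2 logarithm of genotype enrichment divided by wild-type enrichment, from inverse-variance-weighted replicate averages.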

Row | Variant | polymerase ribozyme fitness (log ratio)
1 | C102G U106C C114G C123A | -6.08
2 | U96A U129C | -1.7
3 | C104A G113C | -4.17
4 | C104U C115U | -0.334
5 | A95G U126C | -0.892
6 | C94A G127U | -1.5
7 | C101A G113U | -3.79
8 | A100U G113U C124U | -3.92
9 | C98U C99A A118U U130C | -5.55
10 | C102U G110C | -7.27
11 | C101A A105G | -3.13
12 | C98U U126C | -1.99
13 | C97A G117U | -5.67
14 | C101A U109A | -5.05
15 | C94U C98U G120U G127U | -0.759
16 | A95G A111G | 0.572
17 | A103G U112C | -3.53
18 | C102A U126G | -2.89
19 | A100U U116C G128U U130A | -5.48
20 | C98G G135U | -6.54
21 | C94U G128C | -4.18
22 | C94U U112A | 1.59
23 | C99U U133G | -2.59
24 | A103C C123A | -5.15

Row | Variant | polymerase ribozyme fitness (log ratio)
25 | C99U G128U | -5.25
26 | A100U U130A | -0.606
27 | U96A G117U | -3.63
28 | G93U U96G U106A G127C | -3.43
29 | A103C G120U | -4.69
30 | A103C G120A | -3.52
31 | C104A G127A | -3.1
32 | C94G C114G G120C | -4.95
33 | C94G C124G | 1.09
34 | C99A G110U | -4.34
35 | C99A G110A | -5.17
36 | C94A A118U | -0.204
37 | U96C | 0.0976
38 | U96G | -0.532
39 | U96A | -0.895
40 | A95G G135U | -0.746
41 | C104G A119G | -6.88
42 | C104U U109G | -3.57
43 | C101G U112A | 0.152
44 | A95C U125A U126G | -1.74
45 | C102U U130G | -2.52
46 | U96A U130C | -0.978
47 | A100U G110A | -1.52
48 | C104U G128C | -1.84

Row | Variant | polymerase ribozyme fitness (log ratio)
49 | C104A C123G | -0.779
50 | C104A C123A | -1.7
51 | C98U G120A | -0.67
52 | C104A U130A | -2.46
53 | U96C C123A | 1.12
54 | A100C C104U A121G | 1.96
55 | C101U A111C | 0.393
56 | C101A C115G U132C | -3.46
57 | A105C C115U | -4.02
58 | A95U U132A | -1.52
59 | C97U U116C | -0.713
60 | C101A U131G | -1.9
61 | C102A C124G | 0.0453
62 | A95C G110U | -2.32
63 | A103U U130G | -5.63
64 | C98U U130G | -0.947
65 | C102U G122A | -2.08
66 | C97A G120C | -4.1
67 | C97A G120A | -3.9
68 | C97A G120U | -4.3
69 | C94A A105C C114A A118U | -1.05
70 | G93U U106A | -1.03
71 | C102A C114A | -4.17
72 | C94U U130G | -1.07

Row | Variant | polymerase ribozyme fitness (log ratio)
73 | A100C U130C | -0.362
74 | U96G A111U | -4.9
75 | C101A A121U | -0.684
76 | C94G C115A A121C | 0.289
77 | A95G G117A U133A | -1.23
78 | A105C G128C | -3.71
79 | C101U C102G | -6.19
80 | C94G U106A G135U | -1.54
81 | C98G C115A | -5.15
82 | A95U U129C | -0.935
83 | U96C C114G | -2.45
84 | U96C C114U | -2.44
85 | C98U G110C U131A | -5.64
86 | C99U A119U U130A | -3.7
87 | C101A C115A A121C U125A | -0.732
88 | C102A A111G C115A A118U | -4.83
89 | U96A C104U | -0.116
90 | U96A C104A | -3.3
91 | U96A C97A | -2.95
92 | A105C G117A | -5.32
93 | C97G A111C | -4.02
94 | G93U U109C | -5.62
95 | C99U C114A | -4.84
96 | C104A A119U | -2.35

Row | Variant | polymerase ribozyme fitness (log ratio)
97 | C94A A100G C114U C124G | -5.66
98 | C101G G110A | -4.15
99 | C104U U106C G120U | -0.245
100 | C102A U109C | -6.22
101 | C94G C102U | -3.04
102 | C98U U106A G110U G120C | -2.16
103 | C98A U112A | -3.24
104 | C97G C101U A121C | -2.97
105 | C102U C124G | 0.125
106 | C102U C124A | -0.401
107 | U96A G120U | -0.867
108 | A95C C102A U133A G135C | -2.89
109 | C102A | -1.87
110 | C102U | -1.71
111 | C102G | -5.93
112 | A95U U109G G120C | -5.29
113 | C98U C114U | -3.88
114 | C98U C114G | -5.02
115 | U96A G113A | -1.86
116 | C97G U129A | -5.28
117 | C99A C123U | -6.27
118 | C101U U126G | -2.48
119 | A95U U106C | -1.56
120 | A95G C124U U130G | 0.565

Row | Variant | polymerase ribozyme fitness (log ratio)
121 | C97U A105C | -4.58
122 | A100C C102G | -4.98
123 | A100C C102U | -5.66
124 | C101A G117C A121U | -4.18
125 | C102U G120A | -1.2
126 | C97A U125A | -5.2
127 | C101A C115A G120C | -0.291
128 | C99U C115U | -4.48
129 | C94G G120A | 0.357
130 | C97G U130G | -4.67
131 | C94A C104A C123U | -1.42
132 | A105C C114A A121G | -3.08
133 | C101G A121C | -0.583
134 | C94G C114U | -3.17
135 | C98U U112G | -3.32
136 | C99A G127A | -5.8
137 | U96A G120U G128U | -1.74
138 | C104G A105U A111C G122A | -7.2
139 | C94U A111G | 0.127
140 | C102A U106A C115A U129A | -4.5
141 | C101A G107A | -5.93
142 | A100U G120U | -1.23
143 | A105C U116C | -4.81
144 | C104U G117U | -0.481

Row | Variant | polymerase ribozyme fitness (log ratio)
145 | C99U A121U | -0.669
146 | C102U U132C | -1.91
147 | C102A G110A | -4.38
148 | C98U U126G G128U | -2.42
149 | C94U C123A | 0.36
150 | A105C G110U | -3.75
151 | A105C G110A | -5.26
152 | C99U G120U | -3.34
153 | A100C A121C | 0.337
154 | C98U A111C | -2.13
155 | C97U G120C | 0.554
156 | C97U G120U | -0.768
157 | C97U G120A | 0.391
158 | C99U C101A A121G C124G | -3.31
159 | A103U G127U U129G | -3.98
160 | U96C A118U U129C | -0.593
161 | A95U U116G A118G | -2.78
162 | C94A C97U G120U | -1.04
163 | C99U G113A G117A | -5.78
164 | C99G | -7.03
165 | C99A | -6.24
166 | C99U | -3.02
167 | U96A C102A | -3.43

Reference: the RNAGym collection of RNA variant scans (doi:10.1073/pnas.2313332121)
